Assay results as given in article PMC3978877.

Target: TNFα (UniProt P06804)
UniProt P06804, sequence (P06804 80-235): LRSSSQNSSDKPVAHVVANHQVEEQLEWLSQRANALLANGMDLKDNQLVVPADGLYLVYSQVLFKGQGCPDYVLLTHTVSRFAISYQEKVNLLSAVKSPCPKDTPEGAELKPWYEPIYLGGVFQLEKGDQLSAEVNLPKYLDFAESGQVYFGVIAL

B1: muTNFR-Fc (Fc fusion)
chain: VPAQVVLTPYKPEPGYECQISQEYYDRKAQMCCAKCPPGQYVKHFCNKTSDTVCADCEASMYTQVWNQFRTCLSCSSSCTTDQVEIRACTKQQNRVCACEAGRYCALKTHSGSCRQCMRLSKCGPGFGVASSRAPNGNVLCKACAPGTFSDTTSSTDVCRPHRICSILAIPGNASTDAVCAPESPTLSAIPRTLYVSQPEPTRSQPLDQEPGPSQTPSILTSLGSTPIIEQSTKGG
inhibition of TNF-mediated killing of lung murine fibroblasts (TNFα trimer 5 pM, actinomycin D 2 μg/ml, muTNFR-Fc 50 nM to 0.1 pM, 24 h); half-maximal inhibitory concentration: 0.1 nM
